According to publication PMC2823633 (The Journal of neuroscience : the official journal of the …, 2009):

T1: GST fusion of the Mint1 PDZ-2 domain (740-825) (UniProt Q02410 740-825, Cys 742 replaced with Ser)
T1 sequence (looked up): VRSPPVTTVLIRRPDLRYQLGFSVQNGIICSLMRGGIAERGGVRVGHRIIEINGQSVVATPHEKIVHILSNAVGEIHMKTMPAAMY


The binders below were run against T1, GST fusion of the Mint1 PDZ-2 domain … (assay: ELISA).

Binding result, binds:
ASYCKQRNIVWL [synthetic artificial peptide ASYCKQRNIVWL (positive control)], GVPARTQVAVAV [doubly substituted peptide GVPARTQVAVAV], GHLSESSQVRWL [synthetic artificial peptide GHLSESSQVRWL (positive control)], GVPARTQVEVWV [synthetic artificial peptide GVPARTQVEVWV], TAKCAARFPTWL [synthetic artificial peptide TAKCAARFPTWL]
